According to article PMC10380307, “Enzymatic Characterization of the Isocitrate Dehydrogenase with Dual Coenzyme Specificity from the Marine Bacterium Umbonibacter marinipuiceus” (International Journal of Molecular Sciences, 2023):

Assays:
purified protein [1] = substrate: NC(=O)c1ccc[n+]([C@@H]2O[C@H](COP(=O)(O)OP(=O)(O)OC[C@H]3O[C@@H](n4cnc5c(N)ncnc54)[C@H](O)[C@@H]3O)[C@@H](O)[C@H]2O)c1; test: purified protein; format: biochemical, Umboniibacter marinipuniceus; conditions: 1 mM DL-isocitrate, 50 mM Tris-HCl pH 8.5, 25 °C, apparent constant, varied: cofactor
purified protein [2] = substrate: NC(=O)c1ccc[n+]([C@@H]2O[C@H](COP(=O)(O)OP(=O)(O)OC[C@H]3O[C@@H](n4cnc5c(N)ncnc54)[C@H](OP(=O)(O)O)[C@@H]3O)[C@@H](O)[C@H]2O)c1; test: purified protein; format: biochemical, Umboniibacter marinipuniceus; conditions: 1 mM DL-isocitrate, 50 mM Tris-HCl pH 8.5, 25 °C, apparent constant, varied: cofactor

B1: UmIDH (Umboniibacter marinipuniceus) (protein)
chain: MTFQYILPPKSGEPIQHTQDNQIIVPDRPIIPYIEGDGIGIDITPVMLEVVDAAVAQAYKGKKSIAWMEVFCGEKAADIYEGDWFPPETLAALQKYSVAIKGPLTTPIGGGFRSLNVALRQELDLYVCQRPIQWFKGVPSVVRKPNAVKMVIFRENSEDIYAGIEWRAGSEEAIKVTRFLQEEMGVTSLRFTENCGLGVKPISEQGSKRLVRKAIEYAIAHDKPSVTMVHKGNIMKYTEGAFCEWGYEVACEEFGATHEADSPWLTIINPNTAAKIVIKDVIADAMMQEILMYPQDHSVIATMNLNGDYLSDALAAQVGGIGIAPGANIGDRIALFEPTHGTAPRLAGMDRVNPCSLILSAEMMLRHLGWTKAADLMVKGVKYTISDRTVTHDFHSMMEHAELLSTSEFGAAVIKNMRRR
notes: full-length, codon-optimised synthetic gene in pET28b (NdeI/XhoI), 6xHis tag, E. coli Rosetta (DE3); Type I IDH; putative coenzyme residues R345, L346, V352
- Km (purified protein [1]; Mn2+ (2 mM)): 1800.0 ± 64.4 µM
- kcat (purified protein [1]; Mn2+ (2 mM)): 7.5 ± 0.3 s⁻¹
- kcat/Km (purified protein [1]; Mn2+ (2 mM)): 4200 M⁻¹ s⁻¹
- Km (purified protein [2]; Mn2+ (2 mM)): 1167.7 ± 113.0 µM
- kcat (purified protein [2]; Mn2+ (2 mM)): 11.1 ± 0.4 s⁻¹
- kcat/Km (purified protein [2]; Mn2+ (2 mM)): 9500 M⁻¹ s⁻¹

B2: UmIDH (Umboniibacter marinipuniceus; L346I/R345D/V352A) (protein)
chain: MTFQYILPPKSGEPIQHTQDNQIIVPDRPIIPYIEGDGIGIDITPVMLEVVDAAVAQAYKGKKSIAWMEVFCGEKAADIYEGDWFPPETLAALQKYSVAIKGPLTTPIGGGFRSLNVALRQELDLYVCQRPIQWFKGVPSVVRKPNAVKMVIFRENSEDIYAGIEWRAGSEEAIKVTRFLQEEMGVTSLRFTENCGLGVKPISEQGSKRLVRKAIEYAIAHDKPSVTMVHKGNIMKYTEGAFCEWGYEVACEEFGATHEADSPWLTIINPNTAAKIVIKDVIADAMMQEILMYPQDHSVIATMNLNGDYLSDALAAQVGGIGIAPGANIGDRIALFEPTHGTAPDIAGMDRANPCSLILSAEMMLRHLGWTKAADLMVKGVKYTISDRTVTHDFHSMMEHAELLSTSEFGAAVIKNMRRR
notes: as for B1
- Km (purified protein [1]; metal not stated for mutants): 369.7 ± 11.84 µM
- kcat (purified protein [1]; metal not stated for mutants): 17.7 ± 0.9 s⁻¹
- kcat/Km (purified protein [1]; metal not stated for mutants): 48000 M⁻¹ s⁻¹

B3: UmIDH (Umboniibacter marinipuniceus; L346Y/R345K) (protein)
chain: MTFQYILPPKSGEPIQHTQDNQIIVPDRPIIPYIEGDGIGIDITPVMLEVVDAAVAQAYKGKKSIAWMEVFCGEKAADIYEGDWFPPETLAALQKYSVAIKGPLTTPIGGGFRSLNVALRQELDLYVCQRPIQWFKGVPSVVRKPNAVKMVIFRENSEDIYAGIEWRAGSEEAIKVTRFLQEEMGVTSLRFTENCGLGVKPISEQGSKRLVRKAIEYAIAHDKPSVTMVHKGNIMKYTEGAFCEWGYEVACEEFGATHEADSPWLTIINPNTAAKIVIKDVIADAMMQEILMYPQDHSVIATMNLNGDYLSDALAAQVGGIGIAPGANIGDRIALFEPTHGTAPKYAGMDRVNPCSLILSAEMMLRHLGWTKAADLMVKGVKYTISDRTVTHDFHSMMEHAELLSTSEFGAAVIKNMRRR
notes: as for B1
- Km (purified protein [2]; metal not stated for mutants): 605.9 ± 38.2 µM
- kcat (purified protein [2]; metal not stated for mutants): 15.3 ± 0.2 s⁻¹
- kcat/Km (purified protein [2]; metal not stated for mutants): 25000 M⁻¹ s⁻¹
